Measured values reported in the Immune Epitope Database (IEDB).

Biological target: HLA-A*02:01
Experiment: IEDB peptide-MHC binding, purified MHC/competitive/radioactivity; ≥ and ≤ were set here for values at or beyond the usual limits of such assays
Conditions: source organism: Trypanosoma cruzi

ELLRPTTLV
IC50: 2410 nM

FANHDFTLV
IC50: 101 nM

FANNKFTLV
IC50: 116 nM

FANYKFTLV
IC50: 49 nM

FANYNFTLL
IC50: 1500 nM

FANYNFTLV
IC50: 0.47 nM

FLSHDFTLV
IC50: 0.46 nM

FLSHNFTLVF
IC50: 0.61 nM

FVDYNFSLV
IC50: 1.1 nM

FVNHRFTLV
IC50: 304 nM

FVNYNFTLV
IC50: 0.25 nM

FVSCDFTIV
IC50: 30 nM

GLLPSLLLLL
IC50: 3.1 nM

IANYNFTLV
IC50: 29600 nM

LLGLWGLATA
IC50: 24 nM

RLLPSLLLLL
IC50: 0.8 nM

RVSRPTTVV
IC50: 2490 nM

SLSHYFTLVF
IC50: 1.6 nM
